The source of these data is patent publication US20240197738A1 (UNIVERSITY OF NORTH CAROLINA AT CHAPEL HILL, published 2024).

The target in assay [1] is T1, EWSR1 (wild type) (UniProt Q01844 1-656, limits assumed).
T1 construct: also called EWSR1-WT; HA-EWSR1
T1 sequence (looked up): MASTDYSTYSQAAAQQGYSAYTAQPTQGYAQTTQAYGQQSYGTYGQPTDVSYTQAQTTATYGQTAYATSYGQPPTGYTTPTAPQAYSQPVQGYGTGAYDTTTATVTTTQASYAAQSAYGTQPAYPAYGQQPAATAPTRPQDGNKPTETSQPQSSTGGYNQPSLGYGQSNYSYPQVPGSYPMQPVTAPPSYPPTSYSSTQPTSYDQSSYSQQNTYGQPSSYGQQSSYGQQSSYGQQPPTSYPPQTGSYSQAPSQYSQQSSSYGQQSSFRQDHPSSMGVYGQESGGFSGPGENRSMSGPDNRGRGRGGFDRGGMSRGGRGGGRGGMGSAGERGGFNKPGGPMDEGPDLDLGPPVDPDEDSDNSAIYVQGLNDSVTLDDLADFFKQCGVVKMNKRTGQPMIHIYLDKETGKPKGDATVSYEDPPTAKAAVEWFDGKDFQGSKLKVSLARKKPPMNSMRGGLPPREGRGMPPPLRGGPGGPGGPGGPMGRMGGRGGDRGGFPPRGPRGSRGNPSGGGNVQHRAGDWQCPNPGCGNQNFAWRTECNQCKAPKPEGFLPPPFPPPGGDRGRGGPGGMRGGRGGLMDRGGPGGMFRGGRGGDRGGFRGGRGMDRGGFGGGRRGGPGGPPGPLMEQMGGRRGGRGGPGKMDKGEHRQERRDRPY
The assay is described as follows: binding assay in cells; method not described, data not shown.

For assay [2], the target named is T2, CUL3-E358Q (UniProt Q13618 1-768).
T2 construct: also called E358Q-CUL3
The assay is described as follows: binding assay in cells; method not described.

Assay [3] has as its target T3, CUL3 (wild type) (UniProt Q13618 1-768).
T3 construct: also called WT-CUL3; cullin 3
The assay is described as follows: binding assay in cells; method not described.

T2 sequence (Q13618 whole entry E358Q): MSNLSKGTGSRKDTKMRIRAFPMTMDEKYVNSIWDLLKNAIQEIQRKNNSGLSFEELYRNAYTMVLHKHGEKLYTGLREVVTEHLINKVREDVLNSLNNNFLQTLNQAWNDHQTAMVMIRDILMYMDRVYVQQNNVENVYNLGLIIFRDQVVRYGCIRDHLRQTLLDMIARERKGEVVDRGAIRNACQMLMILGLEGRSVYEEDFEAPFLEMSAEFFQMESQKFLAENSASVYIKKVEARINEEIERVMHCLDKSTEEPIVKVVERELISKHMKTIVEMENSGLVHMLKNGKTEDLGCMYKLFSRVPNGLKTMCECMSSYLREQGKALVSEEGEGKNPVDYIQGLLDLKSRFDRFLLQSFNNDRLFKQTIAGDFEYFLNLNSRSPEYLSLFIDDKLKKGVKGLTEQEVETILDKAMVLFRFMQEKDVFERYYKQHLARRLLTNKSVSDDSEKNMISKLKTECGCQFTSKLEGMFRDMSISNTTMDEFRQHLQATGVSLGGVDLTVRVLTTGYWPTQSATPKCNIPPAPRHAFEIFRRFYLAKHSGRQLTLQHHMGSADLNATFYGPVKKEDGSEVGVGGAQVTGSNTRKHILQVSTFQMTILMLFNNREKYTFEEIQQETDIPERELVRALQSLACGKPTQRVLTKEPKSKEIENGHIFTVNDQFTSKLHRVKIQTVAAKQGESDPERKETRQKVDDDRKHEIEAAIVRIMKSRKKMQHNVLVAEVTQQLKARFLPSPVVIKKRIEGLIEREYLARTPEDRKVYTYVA
T3 sequence (Q13618 whole entry): as the sequence (Q13618 whole entry E358Q) above, with Q358E counted along it

B1: SPOP (other, human, UniProt O43791 1-374, looked up)
chain: MSRVPSPPPPAEMSSGPVAESWCYTQIKVVKFSYMWTINNFSFCREEMGEVIKSSTFSSGANDKLKWCLRVNPKGLDEESKDYLSLYLLLVSCPKSEVRAKFKFSILNAKGEETKAMESQRAYRFVQGKDWGFKKFIRRDFLLDEANGLLPDDKLTLFCEVSVVQDSVNISGQNTMNMVKVPECRLADELGGLWENSRFTDCCLCVAGQEFQAHKAILAARSPVFSAMFEHEMEESKKNRVEINDVEPEVFKEMMCFIYTGKAPNLDKMADDLLAAADKYALERLKVMCEDALCSNLSVENAAEILILADLHSADQLKTQAVDFINYHASDVLETSGWKSMVVSHPHLVAEAYRSLASAQCPFLGPPRKRLKQS
notes: Exogenous SPOP carried a GST, Flag or HA tag; endogenous SPOP was also used; also called GST-SPOP; Flag-SPOP
Turning to B1, the values for the binding result in assay [1], in assay [2] and in assay [3] were “no binding”, “binds” and “binds”, respectively.
